Residue numbers refer to the chain shown, from its start.

As a reminder, the Kd is the concentration at which binding is half-saturated.

B1: LA-2 IgG (antibody, V domains shown)
VH: QIQLVQSGPELKKPGETVKISCKASGYTFTDYSMYWVKQAPGKGLKRMGWINTETGEPTYADDFKGRFALSLDTSASTAYLHISNLKNEDTATYFCARGLDSWGQGTSVTVSS
VL: DIQMTQSPSSLSATLGGKVTITCKASQDINKYIAWYQHKPGKGPRLLIHYTSTLQPGNPSRFSGSGSGRDYSFSISNLEAEDIAIYYCLQYDNLQRTFGGGTKVEIK
notes: also called OspA ST 1-specific IgG mAb LA-2
B2: 857-2, recombinant human monoclonal IgG1 (antibody, V domains shown)
VH: EVQLVQSGEEVKKPGESLKISCKGSGYKFSSYWIGWVRQMPGKGLEWMGIIFPGDSDKRYSPSFQGQVTISADKSISTVYLQWSSLKASDTAMYYCARHITTHTYRGFFDFWGQGTLVTVSS
VL: AIQLTQSPSSLSASVGDRVTITCRASQDISSALAWYQQKPGKAPKLLIYDVSSLESGVPSRFSGSGSGTDFTLTISSLQPEDFATYYCQQFNGYPHRLTFGGGTKVEIK
notes: source: Expi293 cells, transiently transfected with VH and VL plasmids, purified (Protein A)
B3: 221-5, recombinant human monoclonal IgG1 (antibody, V domains shown)
VH: EVQLVQSGAEVKKPGESLKISCKGSGYSFTSYWIGWVRQMPGKGLEWMGIIYPGDSDTRYSPSFQGQVTISADKSISTAYLQWSSLKASDTAMYYCARHLGIDYFFGMDVWGQGTTVTVSS
VL: EIVLTQSPATLSLSPGERATLSCRASQSVSSYLAWYQQKPGQAPRLLIYDASTRDTGIPARFSGSGSGTDFTLTISSLEPEDFAVYYCQHHSNWYTFGQGTKLEIK
notes: as for B2
B4: 221-20, recombinant human monoclonal IgG1 (antibody, V domains shown)
VH: EIQLVQSGTEVKKPGESLRISCRVSGYSFTNYWVAWVRQMPGKGLEWMGIIWPGDSDTRYSPSFQGQVTISADKSINTAYLQWSSLKASDTAVYYCARHLGIDYFFGLDVWGQGTTVTVSS
VL: B3 VL with T53S, D55A, H91L, K102N
notes: as for B2
B5: 221-11, recombinant human monoclonal IgG1 (antibody, V domains shown)
VH: EVQLVQSGAEVKKPGESLKISCQSSGYRFTIYWIGWVRQMPGKGLEWMGIIWPGDSDTRYSPSFQGQVTISADKSISTAYLQWSSLKASDTAMYYCVRGIGRYSNWFLDYWGQGTLVTVSS
VL: AIQLTQSPSSLSASVGDRVTITCRASQGFSSALAWYQQKPGKAPKLLIYDASSLESGVPSRFSGSGSGTDFTLTISSLQPEDFATYYCQQFNSYPLTFGGGTKVEIK
notes: as for B2
B6: 227-1, recombinant human monoclonal IgG1 (antibody, V domains shown)
VH: EVQLVQSGAEVKMPGESLKISCEVSGYSFTSYWIGWVRQMPGKGLEWMGIIYPGDSDTRYSPSFQGQVTISADKSISTAYLQWSSLKASDTAMYYCTRSISRSGPGFSLSWFFDYWGQGTLVTVSS
VL: B5 VL with F29I, S31N, S56R, S67F, T85I, S93G, Y94F, L96N, G100Q, K103R
notes: as for B2
B7: 227-2, recombinant human monoclonal IgG1 (antibody, V domains shown)
VH: B6 VH with L4V, M13K, E23K, V24G, T97V, F107Y, S108I, T120S
VL: B5 VL with F29I, S31N, S56R, S67F, T85I, S93G, Y94F, L96N, G100Q, K103R
notes: as for B2
B8: 221-7, recombinant human monoclonal IgG1 (antibody, V domains shown)
VH: EVQLVQSGSEVKKPGESLKISCQVSGYSFTSYWIGWVRQMPGKGLERVGFIYPGDSDTRYSPSFQGQVTISADKSISTAYLQWSSLKASDTAMYYCARGILRYFDWFLDYWGQGTLVTVSS
VL: B5 VL with F29I, A32G, L33S, A51V, D70E, P95L
notes: as for B2
B9: 223-5, recombinant human monoclonal IgG1 (antibody, V domains shown)
VH: EVQLVQSGAEVKKPGESLKISCKGSGYSLTSYWIGWVRQMPGKGLEWMGIIWPGDSDTRYSPSFQGQVTISADKSISTAYLQWSSLKASDTAMYYCARYVTVGAFDFWGQGTMVTVSS
VL: B5 VL with F29I, A43T, A51V, S67C, L78V, P95L, L96W, G100Q
notes: as for B2

T8 sequence (P0A3N7 17-273): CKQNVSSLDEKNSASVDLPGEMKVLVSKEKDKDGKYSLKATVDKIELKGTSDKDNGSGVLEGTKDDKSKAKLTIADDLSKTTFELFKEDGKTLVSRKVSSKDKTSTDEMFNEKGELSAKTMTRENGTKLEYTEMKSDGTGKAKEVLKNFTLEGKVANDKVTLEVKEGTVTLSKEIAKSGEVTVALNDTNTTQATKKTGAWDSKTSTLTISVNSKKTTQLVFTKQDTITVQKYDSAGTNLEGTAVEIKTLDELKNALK

For one test, the target named is T1, Native OspA ST2 on B. afzelii Pko (Borrelia afzelii PKo (OspA ST2), UniProt P0A3N7).
T1 construct: native OspA (ST2) on the bacterial surface of the primary isolate; also called ST 2- B. afzelii Pko; source: endogenous, on live B. afzelii Pko
T1 sequence (P0A3N7 17-273): as above
In words: flow cytometry on cells; live Borrelia primary isolates with native OspA ST1-7, 10 µg/ml mAb, Alexa 647-labeled goat anti-human IgG. Conditions: one partner purified. (In general: Flow cytometry measures light scatter and fluorescence of single cells or particles in a stream.)
B1: the binding result is listed as “no binding (tested: 10 µg/ml)”.

Another test has as its target T2, Native OspA ST3 on B. garinii PBr (Borrelia garinii PBr (OspA ST3), UniProt B8F1J0, strain).
T2 construct: native OspA (ST3) on the bacterial surface of the primary isolate; also called ST 3- B. garinii PBr; source: endogenous, on live B. garinii PBr
The test is described as above. Conditions: one partner purified.
Consider B1, for which the binding result was “no binding (tested: 10 µg/ml)”.

The next test deals with T3, Native OspA ST4 on B. bavariensis PBi (Borrelia bavariensis PBi (OspA ST4), UniProt Q6LBF1, strain).
T3 construct: native OspA (ST4) on the bacterial surface of the primary isolate; also called ST 4- B. bavariensis PBi; source: endogenous, on live B. bavariensis PBi
Described as above. The note with it: one partner purified.
Regarding B1, the binding result was “no binding (tested: 10 µg/ml)”.

The next test deals with T4, OspA ST1 (B. burgdorferi B31 allele) on the B. burgdorferi HB19-R1 reporter strain (Borrelia burgdorferi B31 (OspA ST1), UniProt P0CL66).
T4 construct: OspA of B. burgdorferi B31 (ST1), lipoprotein on the cell surface; a second wild type ST1 plasmid with silent mutations was used beside the residue 107 mutants; same protein; also called HB19-R1 OspAST1 reporter; source: B. burgdorferi HB19-R1 (lacks ospA), reporter plasmid pGW217, native ospAB promoter, on live cells
T4 sequence (P0CL66 17-273): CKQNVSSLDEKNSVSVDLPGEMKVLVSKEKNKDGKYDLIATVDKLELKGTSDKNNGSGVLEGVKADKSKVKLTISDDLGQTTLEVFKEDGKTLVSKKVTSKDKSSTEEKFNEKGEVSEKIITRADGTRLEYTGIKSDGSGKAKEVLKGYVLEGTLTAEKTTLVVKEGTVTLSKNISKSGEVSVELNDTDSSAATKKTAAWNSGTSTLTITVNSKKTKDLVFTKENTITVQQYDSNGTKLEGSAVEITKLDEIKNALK
In words: flow cytometry on cells; live B. burgdorferi HB19-R1 reporter strains expressing OspA ST1-7, 10 µg/ml mAb, Alexa 647-labeled goat anti-human IgG. The note with it: one partner purified.
As to B1, the MFI is greater than 7000.

B2 had an MFI greater than 4000.

In the case of B3, the MFI was greater than 4000.

For the molecule B4, the MFI was greater than 4000.

The target in a further test is T5, OspA ST2 (B. afzelii PKo allele) on the B. burgdorferi HB19-R1 reporter strain (Borrelia afzelii PKo (OspA ST2), UniProt P0A3N7).
T5 construct: OspA of B. afzelii PKo (ST2); source: B. burgdorferi HB19-R1 (lacks ospA), reporter plasmid, native ospAB promoter of B31, on live cells
T5 sequence (P0A3N7 17-273): as the sequence (P0A3N7 17-273) above
The test is described as above. The note with it: one partner purified.
Take B5: the binding result is listed as “binds”.

B1: the binding result is recorded as “no binding (tested: 10 µg/ml)”.

For B6, the binding result was “binds”.

Regarding B7, the binding result was “binds”.

The molecule B2 displayed an MFI greater than 4000.

Take B3: the MFI was greater than 4000.

Molecule B4 gave an MFI greater than 4000.

A further test deals with OspA ST3 (B. garinii PBr allele) on the B. burgdorferi HB19-R1 reporter strain (Borrelia garinii PBr (OspA ST3), UniProt B8F1J0, strain). The description is as above. Conditions: one partner purified.
For B1, the binding result was “no binding (tested: 10 µg/ml)”.

Consider B6, for which the binding result is given as “no binding”.

In turn, B2 showed an MFI greater than 4000.

B3 displayed an MFI greater than 4000.

The molecule B4 displayed an MFI greater than 4000.

The target of another test is T6, OspA ST4 (B. bavariensis PBi allele) on the B. burgdorferi HB19-R1 reporter strain (Borrelia bavariensis PBi (OspA ST4), UniProt Q6LBF1, strain).
T6 construct: OspA of B. bavariensis PBi (ST4); source: B. burgdorferi HB19-R1 (lacks ospA), reporter plasmid, native ospAB promoter of B31, on live cells
The test is described as above. Conditions: one partner purified.
For the molecule B5, the binding result is reported as “binds”.

In the case of B1, the binding result is “no binding (tested: 10 µg/ml)”.

For B6, the binding result is “binds”.

In the case of B7, the binding result is “binds”.

In turn, B2 returned an MFI greater than 4000.

On to B3, for which the MFI was greater than 4000.

As for B4, the MFI was greater than 4000.

In another test the target is T7, Recombinant OspAST1 (residues 18–273) from B. burgdorferi B31 (Borrelia burgdorferi B31 (OspA ST1), UniProt P0CL66).
T7 construct: source: tags removed with TEV protease; not shown: deca-histidine, N-terminal, cleaved; SUMO, N-terminal, cleaved
T7 sequence (P0CL66 18-273): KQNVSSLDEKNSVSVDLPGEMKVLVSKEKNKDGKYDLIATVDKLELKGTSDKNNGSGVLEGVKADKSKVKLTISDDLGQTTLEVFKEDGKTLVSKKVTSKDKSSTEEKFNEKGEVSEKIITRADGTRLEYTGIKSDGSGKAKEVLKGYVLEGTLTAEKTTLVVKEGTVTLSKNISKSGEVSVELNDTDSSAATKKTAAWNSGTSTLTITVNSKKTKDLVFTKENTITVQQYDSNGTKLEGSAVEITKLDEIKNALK
Briefly: BLI; Octet RED96e; mAb captured on AHC sensors (0.4 µg/mL, 5 min), dipped into non-lipidated OspA 21.58 nM to 0.089 nM (10 min), dissociation 30 min; 0.1% BSA in PBS, 0.01% Tween20; global 1:1 model. Conditions: both partners purified. (BLI is a label-free optical method that tracks binding on a fibre tip over time.)
For B8, the Kd worked out at 0.66 nM.

On to B5, for which the Kd is 0.35 nM.

Turning to B9, the Kd was 0.17 nM.

Consider B1, for which the Kd was determined as 64 nM.

Turning to B6, the Kd was 1.7 nM.

B7: the Kd came to 0.48 nM.

With B2, the Kd came out at 0.3 nM.

Consider B3, for which the dissociation constant Kd worked out at 0.52 nM.

B4: the Kd stood at 0.37 nM.

Another test concerns the target T8, Recombinant non-lipidated OspA serotype 2 (Borrelia afzelii (OspA ST2; strain not …, UniProt P0A3N7).
T8 construct: OspA serotype 2, non-lipidated; also called recombinant OspA ST2; ST 2; source: E. coli, purified; provided by Dr. Meredith Finn (Moderna)
In words: microsphere immunoassay (MIA); recombinant non-lipidated OspA ST 1-7 coupled to Magplex-C microspheres, serial dilutions of mAb, 1 x PBS, 2% BSA, pH 7.4, room temperature 1 hr, PE anti-human IgG Fc. The note with it: both partners purified.
For the molecule B5, the binding result is given as “binds”.

As to B6, the binding result was “binds”.

B7: the binding result is given as “binds”.

The next test has as its target T9, Recombinant non-lipidated OspA serotype 4 (Borrelia bavariensis (OspA ST4; strain …, UniProt Q6LBF1, strain).
T9 construct: OspA serotype 4, non-lipidated; also called recombinant OspA ST4; ST 4; source: E. coli, purified; provided by Dr. Meredith Finn (Moderna)
The description is as above. Conditions: both partners purified.
Consider B5, for which the binding result is recorded as “binds”.

Take B6: the binding result is “binds”.

Take B7: the binding result is given as “binds”.
